Changes are numbered by the printed parent chain.
T1: hPUF_MT(R5:A_13R)(R5:A_13Y)2(R6:U_13Y)3
T1 chain: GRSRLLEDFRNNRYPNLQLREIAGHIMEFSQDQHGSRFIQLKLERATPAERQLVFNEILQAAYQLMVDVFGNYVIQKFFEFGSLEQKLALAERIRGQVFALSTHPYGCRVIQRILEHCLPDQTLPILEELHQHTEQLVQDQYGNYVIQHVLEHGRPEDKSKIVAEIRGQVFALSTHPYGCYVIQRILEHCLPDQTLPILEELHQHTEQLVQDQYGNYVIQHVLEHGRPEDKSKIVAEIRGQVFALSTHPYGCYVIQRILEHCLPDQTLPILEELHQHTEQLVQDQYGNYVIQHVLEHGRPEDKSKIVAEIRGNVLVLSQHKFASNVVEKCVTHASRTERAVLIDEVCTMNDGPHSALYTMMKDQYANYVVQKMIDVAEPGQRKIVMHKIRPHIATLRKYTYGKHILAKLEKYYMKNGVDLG

T2: hPUF_MT(1-2-5-6-5-6-5-6-7-8) / (R5:A_13R)3(R6:U_13Y)3
T2 chain: T1 chain with Y181R, Y253R

T3: hPUF_MT(R8_N12S,Q16R, R3→R5, R4→R6) (R8 repeat N12S,Q16R)
T3 chain: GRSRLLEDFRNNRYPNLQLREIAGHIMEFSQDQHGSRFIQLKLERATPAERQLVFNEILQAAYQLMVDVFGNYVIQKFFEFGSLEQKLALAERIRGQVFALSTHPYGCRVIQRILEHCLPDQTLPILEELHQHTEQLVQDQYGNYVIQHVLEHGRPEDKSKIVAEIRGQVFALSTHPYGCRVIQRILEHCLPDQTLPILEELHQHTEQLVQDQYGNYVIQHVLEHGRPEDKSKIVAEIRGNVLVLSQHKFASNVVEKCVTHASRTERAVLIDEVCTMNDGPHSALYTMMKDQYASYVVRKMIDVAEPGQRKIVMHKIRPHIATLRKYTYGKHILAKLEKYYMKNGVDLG

T4: hPUF_MT(R3→R5, R4→R6)
T4 chain: T3 chain with S295N, R299Q


Experiments:
Details in all cases: label: Alexa680 at 5' and 3'
[1] = target: T1, hPUF_MT(R5:A_13R)(R5:A_13Y)2(R6:U_13Y)3; assay: EMSA; equivalent
[2] = target: T2, hPUF_MT(1-2-5-6-5-6-5-6-7-8) / …; assay: EMSA; Example 2-5 reported comparable to WT
[3] = target: T3, hPUF_MT(R8_N12S,Q16R, R3→R5, R4→R6); assay: EMSA; C>>G
[4] = target: T4, hPUF_MT(R3→R5, R4→R6); assay: EMSA; binds U exclusively at R8 position

Row | Binder | binding signal [1] | binding signal [2] | binding result [3] | binding result [4]
1 | CCAGAAUUGUAUAUAUAUUCG (ssRNA) [OTS-1844] | ~1 fold of 13R protein | ~10 fold of WT |  | 
2 | CCAGAAUCGUAUAUAUUCG (ssRNA) [OTS-2035] |  |  | binds | no binding
